Results as given in the Human Domainome abundance scans (Beltran et al. 2025).
± gives the uncertainty stated by the source.

B1: RAS guanyl-releasing protein 1, residues 539 to 593; numbered along this chain, O95267 (parent)
chain: GFPHNFQETTYLKPTFCDNCAGFLWGVIKQGYRCKDCGMNCHKQCKDLVVFECKK

Variants of: B1
Assay: abundance fitness (aPCA) (normalised: wild type 0, dead -1); higher = more abundant; growth selection in yeast, the domain comes from the species named
Details: Homo sapiens
GFPHNFQETTYTKPTFCDNCAGFLWGVIKQGYRCKDCGMNCHKQCKDLVVFECKK [L12T] showed an abundance fitness of -0.25 ± 0.093. GFPHNFQETTYQKPTFCDNCAGFLWGVIKQGYRCKDCGMNCHKQCKDLVVFECKK [L12Q] showed an abundance fitness of -0.337 ± 0.19. GFPHNFQETTYPKPTFCDNCAGFLWGVIKQGYRCKDCGMNCHKQCKDLVVFECKK [L12P] showed an abundance fitness of -0.149 ± 0.09. GFPHNFQETTYEKPTFCDNCAGFLWGVIKQGYRCKDCGMNCHKQCKDLVVFECKK [L12E] gave an abundance fitness of -0.19 ± 0.097. GFPHNFQETTYLHPTFCDNCAGFLWGVIKQGYRCKDCGMNCHKQCKDLVVFECKK [K13H] showed an abundance fitness of 0.015 ± 0.087. Variant GFPHNFQETTYLQPTFCDNCAGFLWGVIKQGYRCKDCGMNCHKQCKDLVVFECKK [K13Q] has an abundance fitness of -0.247 ± 0.33. Variant GFPHNFQETTYLLPTFCDNCAGFLWGVIKQGYRCKDCGMNCHKQCKDLVVFECKK [K13L] has an abundance fitness of -0.028 ± 0.067. GFPHNFQETTYLCPTFCDNCAGFLWGVIKQGYRCKDCGMNCHKQCKDLVVFECKK [K13C] gave an abundance fitness of -0.153 ± 0.062. GFPHNFQETTYLPPTFCDNCAGFLWGVIKQGYRCKDCGMNCHKQCKDLVVFECKK [K13P] gave an abundance fitness of -0.507 ± 0.072. In the case of GFPHNFQETTYLNPTFCDNCAGFLWGVIKQGYRCKDCGMNCHKQCKDLVVFECKK [K13N], the abundance fitness is reported as -0.336 ± 0.16. Variant GFPHNFQETTYLGPTFCDNCAGFLWGVIKQGYRCKDCGMNCHKQCKDLVVFECKK [K13G] has an abundance fitness of -0.333 ± 0.082. With GFPHNFQETTYLFPTFCDNCAGFLWGVIKQGYRCKDCGMNCHKQCKDLVVFECKK [K13F] the abundance fitness was -0.167 ± 0.12. Work on GFPHNFQETTYLDPTFCDNCAGFLWGVIKQGYRCKDCGMNCHKQCKDLVVFECKK [K13D] yielded an abundance fitness of -0.603 ± 0.26. In the case of GFPHNFQETTYLMPTFCDNCAGFLWGVIKQGYRCKDCGMNCHKQCKDLVVFECKK [K13M], the abundance fitness is reported as 0.04 ± 0.1. Variant GFPHNFQETTYLVPTFCDNCAGFLWGVIKQGYRCKDCGMNCHKQCKDLVVFECKK [K13V] has an abundance fitness of -0.106 ± 0.086. GFPHNFQETTYLRPTFCDNCAGFLWGVIKQGYRCKDCGMNCHKQCKDLVVFECKK [K13R] gave an abundance fitness of -0.231 ± 0.086. With GFPHNFQETTYLAPTFCDNCAGFLWGVIKQGYRCKDCGMNCHKQCKDLVVFECKK [K13A] the abundance fitness was -0.223 ± 0.078. In the case of GFPHNFQETTYLEPTFCDNCAGFLWGVIKQGYRCKDCGMNCHKQCKDLVVFECKK [K13E], the abundance fitness is reported as -0.565 ± 0.16. Variant GFPHNFQETTYLWPTFCDNCAGFLWGVIKQGYRCKDCGMNCHKQCKDLVVFECKK [K13W] has an abundance fitness of -0.131 ± 0.086. GFPHNFQETTYLSPTFCDNCAGFLWGVIKQGYRCKDCGMNCHKQCKDLVVFECKK [K13S] showed an abundance fitness of -0.116 ± 0.054. GFPHNFQETTYLIPTFCDNCAGFLWGVIKQGYRCKDCGMNCHKQCKDLVVFECKK [K13I] showed an abundance fitness of -0.257 ± 0.17. With GFPHNFQETTYLTPTFCDNCAGFLWGVIKQGYRCKDCGMNCHKQCKDLVVFECKK [K13T] the abundance fitness was -0.105 ± 0.1. GFPHNFQEYTYLKPTFCDNCAGFLWGVIKQGYRCKDCGMNCHKQCKDLVVFECKK [T9Y] showed an abundance fitness of -0.013 ± 0.13. Work on GFPHNFQEPTYLKPTFCDNCAGFLWGVIKQGYRCKDCGMNCHKQCKDLVVFECKK [T9P] yielded an abundance fitness of -0.768 ± 0.22. In the case of GFPHNFQESTYLKPTFCDNCAGFLWGVIKQGYRCKDCGMNCHKQCKDLVVFECKK [T9S], the abundance fitness is reported as 0.028 ± 0.067. GFPHNFQEWTYLKPTFCDNCAGFLWGVIKQGYRCKDCGMNCHKQCKDLVVFECKK [T9W] gave an abundance fitness of -0.136 ± 0.1. With GFPHNFQENTYLKPTFCDNCAGFLWGVIKQGYRCKDCGMNCHKQCKDLVVFECKK [T9N] the abundance fitness was -0.051 ± 0.14. Work on GFPHNFQEQTYLKPTFCDNCAGFLWGVIKQGYRCKDCGMNCHKQCKDLVVFECKK [T9Q] yielded an abundance fitness of -0.056 ± 0.062. GFPHNFQEMTYLKPTFCDNCAGFLWGVIKQGYRCKDCGMNCHKQCKDLVVFECKK [T9M] gave an abundance fitness of 0.034 ± 0.076. GFPHNFQELTYLKPTFCDNCAGFLWGVIKQGYRCKDCGMNCHKQCKDLVVFECKK [T9L] showed an abundance fitness of -0.184 ± 0.076. GFPHNFQERTYLKPTFCDNCAGFLWGVIKQGYRCKDCGMNCHKQCKDLVVFECKK [T9R] showed an abundance fitness of -0.068 ± 0.089. Work on GFPHNFQETIYLKPTFCDNCAGFLWGVIKQGYRCKDCGMNCHKQCKDLVVFECKK [T10I] yielded an abundance fitness of -0.576 ± 0.1. Work on GFPHNFQETWYLKPTFCDNCAGFLWGVIKQGYRCKDCGMNCHKQCKDLVVFECKK [T10W] yielded an abundance fitness of -0.073 ± 0.071. Variant GFPHNFQETNYLKPTFCDNCAGFLWGVIKQGYRCKDCGMNCHKQCKDLVVFECKK [T10N] has an abundance fitness of -0.311 ± 0.13. GFPHNFQETPYLKPTFCDNCAGFLWGVIKQGYRCKDCGMNCHKQCKDLVVFECKK [T10P] gave an abundance fitness of -0.605 ± 0.13. In the case of GFPHNFQETFYLKPTFCDNCAGFLWGVIKQGYRCKDCGMNCHKQCKDLVVFECKK [T10F], the abundance fitness is reported as -0.045 ± 0.37. GFPHNFQETEYLKPTFCDNCAGFLWGVIKQGYRCKDCGMNCHKQCKDLVVFECKK [T10E] gave an abundance fitness of -0.925 ± 0.15. For GFPHNFQETAYLKPTFCDNCAGFLWGVIKQGYRCKDCGMNCHKQCKDLVVFECKK [T10A], the abundance fitness was -0.408 ± 0.12. Work on GFPHNFQETLYLKPTFCDNCAGFLWGVIKQGYRCKDCGMNCHKQCKDLVVFECKK [T10L] yielded an abundance fitness of -0.426 ± 0.052. Work on GFPHNFQETGYLKPTFCDNCAGFLWGVIKQGYRCKDCGMNCHKQCKDLVVFECKK [T10G] yielded an abundance fitness of -0.208 ± 0.068. For GFPHNFQETQYLKPTFCDNCAGFLWGVIKQGYRCKDCGMNCHKQCKDLVVFECKK [T10Q], the abundance fitness was -0.357 ± 0.093. Work on GFPHNFQETHYLKPTFCDNCAGFLWGVIKQGYRCKDCGMNCHKQCKDLVVFECKK [T10H] yielded an abundance fitness of -0.364 ± 0.15. Variant GFPHNFQETRYLKPTFCDNCAGFLWGVIKQGYRCKDCGMNCHKQCKDLVVFECKK [T10R] has an abundance fitness of -0.494 ± 0.073. With GFPHNFQETSYLKPTFCDNCAGFLWGVIKQGYRCKDCGMNCHKQCKDLVVFECKK [T10S] the abundance fitness was -0.092 ± 0.046. GFPHNFQETYYLKPTFCDNCAGFLWGVIKQGYRCKDCGMNCHKQCKDLVVFECKK [T10Y] gave an abundance fitness of -0.291 ± 0.081. GFPHNFQETMYLKPTFCDNCAGFLWGVIKQGYRCKDCGMNCHKQCKDLVVFECKK [T10M] gave an abundance fitness of -0.682 ± 0.24. With GFPHNFQETVYLKPTFCDNCAGFLWGVIKQGYRCKDCGMNCHKQCKDLVVFECKK [T10V] the abundance fitness was -0.95 ± 0.17. In the case of GFPHNFQETKYLKPTFCDNCAGFLWGVIKQGYRCKDCGMNCHKQCKDLVVFECKK [T10K], the abundance fitness is reported as -0.456 ± 0.17.
